The supplement of paper PMC7877785
± gives the uncertainty stated by the source.

Test: self-splicing fitness, log relative to wild type (ln ratio); higher = more splicing; Tetrahymena group I intron in knt gene, E. coli kanamycin selection, DiMSum; sequences stand for … in CUCUCU…GGAGGGAAAAGUUAUCAGGCAUGCACCUGGUAGCUAGUCUUUAAACCAAUAGAUUGCAUCGGUUUAAAAGGCAAGACCGUCAAAUUGCGGGAAAGGGGUCAACAGCCGUUCAGUACCAAGUCUCAGGGGAAACUUUGAGAUGGCCUUGCAAAGGGUAUGGUAAUAAGCUGACGGACAUGGUCCUAACCACGCAGCCAAGUCCUAAGUCAACAGAUCUUCUGUUGAUAUGGAUGCAGUUCACAGACUAAAUGUCGGUCGGGGAAGAUGUAUUCUUCUCAUAAGAUAUAGUCGGACCUCUCCUUAAUGGGAGCUAGCGGAUGAAGUGAUGCAACACUGGAGCCGCUGGGAACUAAUUUGUAUGCGAAAGUAUAUUGAUUAGUUUUGGAGUACUCGUGGUCG
Summary of the method: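 Six replicate transformations of E. coli BL21(DE3) with a pET-22b(+) library were grown overnight at 37°C or 30°C. The library randomised all eight P1ex-region intron nucleotides, the intron lying in the knt kanamycin-resistance gene, and plates were LB agar with or without 25 μg/mL kanamycin plus 100 μg/mL carbenicillin, 50 μM IPTG and 0.2% rhamnose. Pooled colonies were amplicon-sequenced on an Illumina HiSeq 2500, and fitness is the DiMSum error-weighted combination of wild-type-normalised replicate fold changes, kanamycin versus none.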

Row | Sequence | self-splicing fitness (ln) (30 °C) | self-splicing fitness (ln) (37 °C)
1 | UUCAAGCAAUAUUACGUUCG | -1.96 ± 0.12 | -1.44 ± 0.12
2 | UUCCAGCAAUAUUACGAAAU | -2.78 ± 0.36 | -1.58 ± 0.32
3 | UUCCAGCAAUAUUACGACAC | -3.32 ± 0.19 | -2.18 ± 0.19
4 | UUCCAGCAAUAUUACGACGC | -3.25 ± 0.24 | -3.03 ± 0.17
5 | UUCCAGCAAUAUUACGACUA | -0.435 ± 0.097 | -0.117 ± 0.085
6 | UUCCAGCAAUAUUACGAGAC | -2.82 ± 0.27 | -1.79 ± 0.32
7 | UUCCAGCAAUAUUACGAGUC | -2.56 ± 0.13 | -1.13 ± 0.15
8 | UUCCAGCAAUAUUACGAUUC | -1.5 ± 0.17 | -2.04 ± 0.27
9 | UUCCAGCAAUAUUACGCACA | -0.0937 ± 0.12 | -0.0969 ± 0.13
10 | UUCCAGCAAUAUUACGCGCA | -0.0641 ± 0.12 | -0.358 ± 0.14
11 | UUCCAGCAAUAUUACGCGGA | -2.74 ± 0.24 | -3.39 ± 0.33
12 | UUCCAGCAAUAUUACGCGUA | -0.454 ± 0.087 | 0.0549 ± 0.083
13 | UUCCAGCAAUAUUACGCGUC | -1.59 ± 0.16 | -0.827 ± 0.18
14 | UUCCAGCAAUAUUACGCGUU | -2.35 ± 0.1 | -1.6 ± 0.1
15 | UUCCAGCAAUAUUACGGACC | -1.77 ± 0.14 | -0.818 ± 0.16
16 | UUCCAGCAAUAUUACGGAUA | -0.966 ± 0.092 | -0.56 ± 0.098
17 | UUCCAGCAAUAUUACGGCGC | -2.61 ± 0.14 | -0.177 ± 0.12
18 | UUCCAGCAAUAUUACGGGUC | -2.91 ± 0.17 | -2.12 ± 0.25
19 | UUCCAGCAAUAUUACGGGUU | -2.05 ± 0.1 | -1.39 ± 0.13
20 | UUCCAGCAAUAUUACGGUUG | -2.43 ± 0.11 | -1.75 ± 0.16
21 | UUCCAGCAAUAUUACGUACU | – | -1.82 ± 0.21
22 | UUCCAGCAAUAUUACGUCAU | -3.65 ± 0.2 | -2.72 ± 0.2
23 | UUCCAGCAAUAUUACGUGGG | -3.68 ± 0.18 | -2.56 ± 0.16
24 | UUCCAGCAAUAUUACGUUAC | -3.45 ± 0.43 | -2.57 ± 0.25

Row | Sequence | self-splicing fitness (ln) (30 °C) | self-splicing fitness (ln) (37 °C)
25 | UUCGAGCAAUAUUACGAACG | -2.89 ± 0.29 | -0.783 ± 0.33
26 | UUCGAGCAAUAUUACGACAG | -2.81 ± 0.19 | -1.5 ± 0.13
27 | UUCGAGCAAUAUUACGAUGC | -1.44 ± 0.4 | –
28 | UUCGAGCAAUAUUACGCAAG | -1.98 ± 0.4 | -1.66 ± 0.48
29 | UUCGAGCAAUAUUACGCCGA | -2.65 ± 0.22 | -2.66 ± 0.33
30 | UUCGAGCAAUAUUACGCCUU | -3.09 ± 0.26 | -1.64 ± 0.26
31 | UUCGAGCAAUAUUACGCUAG | -2.82 ± 0.26 | -2.05 ± 0.42
32 | UUCGAGCAAUAUUACGGACA | -2.7 ± 0.22 | -1.79 ± 0.17
33 | UUCGAGCAAUAUUACGGAUA | -2.76 ± 0.28 | -2.08 ± 0.25
34 | UUCGAGCAAUAUUACGGUAA | -1.85 ± 0.25 | -1.55 ± 0.19
35 | UUCGAGCAAUAUUACGGUCU | -5 ± 0.38 | -5.45 ± 0.36
36 | UUCGAGCAAUAUUACGUACA | -2.27 ± 0.22 | -1.81 ± 0.15
37 | UUCGAGCAAUAUUACGUAGU | -2.91 ± 0.29 | -0.98 ± 0.25
38 | UUCGAGCAAUAUUACGUCAG | -3.92 ± 0.43 | 0.987 ± 0.26
39 | UUCGAGCAAUAUUACGUCAU | -2.56 ± 0.21 | -3.46 ± 0.46
40 | UUCGAGCAAUAUUACGUGUA | -2.65 ± 0.09 | -1.86 ± 0.095
41 | UUCUAGCAAUAUUACGACCU | -0.905 ± 0.42 | -2.63 ± 0.44
42 | UUCUAGCAAUAUUACGACGG | -1.31 ± 0.1 | -1.77 ± 0.15
43 | UUCUAGCAAUAUUACGACUU | -1.77 ± 0.24 | -1.59 ± 0.19
44 | UUCUAGCAAUAUUACGAUGU | -3.53 ± 0.42 | -1.66 ± 0.2
45 | UUCUAGCAAUAUUACGCAUC | -2.33 ± 0.42 | -0.769 ± 0.29
46 | UUCUAGCAAUAUUACGCAUG | -3.42 ± 0.16 | -2.01 ± 0.18
47 | UUCUAGCAAUAUUACGCCGU | -2.06 ± 0.46 | -0.835 ± 0.34
48 | UUCUAGCAAUAUUACGCCUA | -1.94 ± 0.29 | -0.0729 ± 0.19
